The source of these data is patent US20090060908A1 (Bristol-Myers Squibb, published 2009).

In experiment [1] the target is T1, prostate specific membrane antigen (PSMA) on LNCaP cells (human, UniProt Q04609 1-750). The experiment can be described thus: cell-based or functional assay.
Experiment [2] deals with T1, prostate specific membrane antigen …. Kind of experiment: cell-based or functional assay. The source holds these as a separate data set.

T1 sequence (Q04609 whole entry): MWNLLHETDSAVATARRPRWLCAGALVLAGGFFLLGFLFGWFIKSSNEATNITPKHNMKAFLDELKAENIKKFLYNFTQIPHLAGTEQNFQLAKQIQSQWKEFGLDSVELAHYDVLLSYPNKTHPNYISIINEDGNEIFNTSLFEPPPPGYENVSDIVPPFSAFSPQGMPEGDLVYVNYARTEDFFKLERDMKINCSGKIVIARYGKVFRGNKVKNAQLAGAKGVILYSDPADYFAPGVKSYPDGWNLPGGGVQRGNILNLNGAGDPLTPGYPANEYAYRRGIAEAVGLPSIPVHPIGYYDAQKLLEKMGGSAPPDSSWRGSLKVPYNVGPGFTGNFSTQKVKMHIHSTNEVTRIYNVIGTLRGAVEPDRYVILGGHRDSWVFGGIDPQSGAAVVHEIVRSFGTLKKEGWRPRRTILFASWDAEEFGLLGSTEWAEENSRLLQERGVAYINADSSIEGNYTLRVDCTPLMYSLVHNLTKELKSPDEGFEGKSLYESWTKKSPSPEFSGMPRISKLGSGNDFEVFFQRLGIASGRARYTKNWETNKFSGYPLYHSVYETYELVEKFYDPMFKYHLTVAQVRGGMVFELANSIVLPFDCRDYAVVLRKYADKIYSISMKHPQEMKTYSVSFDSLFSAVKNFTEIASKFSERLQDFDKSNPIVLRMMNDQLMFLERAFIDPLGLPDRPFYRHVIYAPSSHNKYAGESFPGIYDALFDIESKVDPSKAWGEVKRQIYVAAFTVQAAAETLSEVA

B1: anti-PSMA human monoclonal antibody 7F12 expressed in eggs of chimeric chickens (lacks fucose residues) (antibody, IgG1, V domains shown)
VH: AVQLVQSGAEVKKPGESLKISCKGSGYSFTSFWIGWARQMPGKGLEWMGIIYPGDSDTRYSPSFQGQVTISADKSISTAYLQWSSLKASDTAMYYCATANSSFWNFDLWGRGTLVTVSS
VL: EIVLTQSPATLSLSPGERATLSCRASQSVSSYLAWYQQKPGQAPRLLIYDASNRATGIPARFSGSGSGTDFTLTISSLEPEDFAVYYCQQRSNWLMYTFGQGTKLEIK
modifications: N-linked Fc glycans without fucosyl residues (high-mannose, complex and hybrid type)
As to B1, in experiment [1], the “ADCC % lysis at 1 µg/ml antibody, no anti-CD16 antibody” value (“ADCC % lysis … no anti-CD16 antibody” below) is ~38%; the “ADCC EC50, 51Cr release, LNCaP-C42b targets, IL-2 stimulated effector cells” value is 0.018 µg/mL; the “ADCC EC50 fold difference against CHO-expressed 7F12” value is ~6 fold lower; the “EC50 for antibody internalization (Hum-Zap saporin conjugate, LNCaP cell viability)” value worked out at 0.49 nM.

B2: anti-PSMA human monoclonal antibody 7F12 expressed in CHO cells (fucosylated) (antibody, human IgG1, V domains shown)
VH: AVQLVQSGAEVKKPGESLKISCKGSGYSFTSFWIGWARQMPGKGLEWMGIIYPGDSDTRYSPSFQGQVTISADKSISTAYLQWSSLKASDTAMYYCATANSSFWNFDLWGRGTLVTVSS
VL: EIVLTQSPATLSLSPGERATLSCRASQSVSSYLAWYQQKPGQAPRLLIYDASNRATGIPARFSGSGSGTDFTLTISSLEPEDFAVYYCQQRSNWLMYTFGQGTKLEIK
modifications: N-linked Fc glycans containing fucosyl residues
For the molecule B2, in experiment [1], the “ADCC % lysis … no anti-CD16 antibody” value is ~15%; the “ADCC EC50, 51Cr release, LNCaP-C42b targets, IL-2 stimulated effector cells” value was found to be 0.11 µg/mL; the “EC50 for antibody internalization (Hum-Zap saporin conjugate, LNCaP cell viability)” value was determined as 0.49 nM.

B3: anti-PSMA fully human monoclonal antibody 2A10 expressed in CHO DG44 cells (fucosylated) (antibody, V domains shown)
VH: EVQLVQSGAEVKKPGESLKISCKGSGYSFTSNWIGWVRQMPGKGLEWMGIIYPGDSDTRYSPSFQGQVTISADKSISTAYLQWSSLKASDTAMYYCARQTGFLWSSDLWGRGTLVTVSS
VL: AIQLTQSPSSLSASVGDRVTITCRASQDISSALAWYQQKPGKAPKLLIYDASSLESGVPSRFSGYGSGTDFTLTINSLQPEDFATYYCQQFNSYPLTFGGGTKVEIK
modifications: N-linked glycans containing fucose
On to B3, for which, in experiment [2], the “ADCC EC50 (µg/ml) Fucosylated, Expt. #1 (IL-2 stimulated effector cells, LNCaP-C42b targets)” value is 0.08 µg/mL; the “ADCC EC50 (µg/ml) Fucosylated, Expt. #2 (IL-2 stimulated effector cells, LNCaP-C42b targets)” value was determined as 0.026 µg/mL; the “ADCC EC50 (µg/ml) Fucosylated, Expt. #3 (fresh human peripheral blood effector cells, LNCaP-C42b targets)” value is 0.036 µg/mL. For the same molecule, in experiment [1], the “ADCC % lysis … no anti-CD16 antibody” value is ~12%.

B4: anti-PSMA fully human monoclonal antibody 2A10 expressed in FUT8-/- Ms704 cells (defucosylated) (antibody, IgG1, V domains shown)
VH: EVQLVQSGAEVKKPGESLKISCKGSGYSFTSNWIGWVRQMPGKGLEWMGIIYPGDSDTRYSPSFQGQVTISADKSISTAYLQWSSLKASDTAMYYCARQTGFLWSSDLWGRGTLVTVSS
VL: AIQLTQSPSSLSASVGDRVTITCRASQDISSALAWYQQKPGKAPKLLIYDASSLESGVPSRFSGYGSGTDFTLTINSLQPEDFATYYCQQFNSYPLTFGGGTKVEIK
modifications: N-linked glycans without fucose residues
As for B4, in experiment [2], the “ADCC EC50 (µg/ml) Defucosylated, Expt. #1 (IL-2 stimulated effector cells, LNCaP-C42b targets)” value came to 0.007 µg/mL; the “ADCC EC50 (µg/ml) Defucosylated, Expt. #2 (IL-2 stimulated effector cells, LNCaP-C42b targets)” value is 0.009 µg/mL; the “ADCC EC50 (µg/ml) Defucosylated, Expt. #3 (fresh human peripheral blood effector cells, LNCaP-C42b targets)” value amounted to 0.002 µg/mL; the “ADCC EC50 Ratio (fucosylated to defucosylated 2A10), Expt. #1” value was found to be 11.4 ratio. Moreover, in experiment [2], the “ADCC EC50 Ratio (fucosylated to defucosylated 2A10), Expt. #2” value was found to be 2.9 ratio and the “ADCC EC50 Ratio (fucosylated to defucosylated 2A10), Expt. #3” value turned out to be 18 ratio. In addition, the “ADCC % lysis … no anti-CD16 antibody” value in experiment [1] is ~37%.
